T1: His-tagged Fc-fused human IL12Rβ2 (human, UniProt Q99665 24-622)
T1 sequence (looked up): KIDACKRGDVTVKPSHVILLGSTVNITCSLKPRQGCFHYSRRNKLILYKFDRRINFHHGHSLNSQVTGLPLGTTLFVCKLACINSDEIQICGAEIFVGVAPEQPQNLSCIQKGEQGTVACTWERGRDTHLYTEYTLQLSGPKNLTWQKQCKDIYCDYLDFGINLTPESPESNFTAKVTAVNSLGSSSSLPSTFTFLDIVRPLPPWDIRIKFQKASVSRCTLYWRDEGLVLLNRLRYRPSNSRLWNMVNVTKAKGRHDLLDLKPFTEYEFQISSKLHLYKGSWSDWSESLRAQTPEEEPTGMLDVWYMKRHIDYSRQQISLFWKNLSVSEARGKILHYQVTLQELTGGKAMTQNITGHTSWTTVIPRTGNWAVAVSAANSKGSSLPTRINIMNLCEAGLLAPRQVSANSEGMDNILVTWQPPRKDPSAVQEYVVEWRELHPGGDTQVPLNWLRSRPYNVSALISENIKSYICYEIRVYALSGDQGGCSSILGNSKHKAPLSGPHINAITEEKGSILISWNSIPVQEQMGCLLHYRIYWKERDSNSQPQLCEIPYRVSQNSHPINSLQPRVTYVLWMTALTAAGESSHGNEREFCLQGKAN


Legend:
[1] = target: His-tagged Fc-fused human IL12Rβ2 (human) (UniProt Q99665); assay: SPR
[2] = target: T1, His-tagged Fc-fused human IL12Rβ2; assay: SPR

Row | Molecule | Kd [1] | Kd [2]
1 | proteolytically cleaved XTX301 (active IL12 released from XTX301) (ligand) | 7.97 nM | 
2 | wild-type recombinant human IL12 (complex) chain 1: RNLPVATPDPGMFPCLHHSQNLLRAVSNMLQKARQTLEFYPCTSEEIDHEDITKDKTSTVEACLPLELTKNESCLNSRETSFITNGSCLASRKTSFMMALCLSSIYEDLKMYQVEFKTMNAKLLMDPKRQIFLDQNMLAVIDELMQALNFNSETVPQKSSLEEPDFYKTKIKLCILLHAFRIRAVTIDRVMSYLNAS chain 2: IWELKKDVYVVELDWYPDAPGEMVVLTCDTPEEDGITWTLDQSSEVLGSGKTLTIQVKEFGDAGQYTCHKGGEVLSHSLLLLHKKEDGIWSTDILKDQKEPKNKTFLRCEAKNYSGRFTCWWLTTISTDLTFSVKSSRGSSDPQGVTCGAATLSAERVRGDNKEYEYSVECQEDSACPAAEESLPIEVMVDAVHKLKYENYTSSFFIRDIIKPDPPKNLQLKPLKNSRQVEVSWEYPDTWSTPHSYFSLTFCVQVQGKSKREKKDRVFTDKTSATVICRKNASISVRAQDRYYSSSWSEWASVPCS |  | 0.93 nM

Source: publication PMC10993987 (Molecular Cancer Therapeutics, 2023)
